Assays:
[1] = target: IrtB-Rv2895c two-component system (rIrtB in LP-49 liposomes with rRv2895c) (Mycobacterium tuberculosis, UniProt P9WL31+P9WQJ7)
[2] = target: the molecule itself; assay: SEC + other: circular dichroism

Sequence of IrtB-Rv2895c two-component system (rIrtB in LP-49 liposomes with rRv2895c) (P9WL31 whole entry, one chain of several): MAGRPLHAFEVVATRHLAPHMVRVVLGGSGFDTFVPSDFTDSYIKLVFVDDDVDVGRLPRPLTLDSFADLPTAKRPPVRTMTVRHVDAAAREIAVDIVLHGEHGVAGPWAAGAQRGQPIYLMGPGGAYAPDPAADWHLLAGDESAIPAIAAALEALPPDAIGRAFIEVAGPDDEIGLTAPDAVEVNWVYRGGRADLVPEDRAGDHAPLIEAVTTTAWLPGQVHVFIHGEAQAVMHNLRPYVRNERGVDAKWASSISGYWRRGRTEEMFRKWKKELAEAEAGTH

Q: Which “inorganic phosphate release in proteoliposomes” value [1] does the source give for `Nc1ncnc2c1ncn2[C@@H]1O[C@H](COP(=O)(O)OP(=O)(O)OP(=O)(O)O)[C@@H](O)[C@H]1O` [ATP] here?
A: The increase in ATPase activity of (a) LP-49 liposomes after incubation with Fe-cMyco bound rRv2895c

B1: rIrtA (recombinant purified IrtA, Rv1348) (natural protein)
chain: MARGLQGVMLRSFGARDHTATVIETISIAPHFVRVRMVSPTLFQDAEAEPAAWLRFWFPDPNGSNTEFQRAYTISEADPAAGRFAVDVVLHDPAGPASSWARTVKPGATIAVMSLMGSSRFDVPEEQPAGYLLIGDSASIPGMNGIIETVPNDVPIEMYLEQHDDNDTLIPLAKHPRLRVRWVMRRDEKSLAEAIENRDWSDWYAWATPEAAALKCVRVRLRDEFGFPKSEIHAQAYWNAGRAMGTHRATEPAATEPEVGAAPQPESAVPAPARGSWRAQAASRLLAPLKLPLVLSGVLAALVTLAQLAPFVLLVELSRLLVSGAGAHRLFTVGFAAVGLLGTGALLAAALTLWLHVIDARFARALRLRLLSKLSRLPLGWFTSRGSGSIKKLVTDDTLALHYLVTHAVPDAVAAVVAPVGVLVYLFVVDWRVALVLFGPVLVYLTITSSLTIQSGPRIVQAQRWAEKMNGEAGSYLEGQPVIRVFGAASSSFRRRLDEYIGFLVAWQRPLAGKKTLMDLATRPATFLWLIAATGTLLVATHRMDPVNLLPFMFLGTTFGARLLGIAYGLGGLRTGLLAARHLQVTLDETELAVREHPREPLDGEAPATVVFDHVTFGYRPGVPVIQDVSLTLRPGTVTALVGPSGSGKSTLATLLARFHDVERGAIRVGGQDIRSLAADELYTRVGFVLQEAQLVHGTAAENIALAVPDAPAEQVQVAAREAQIHDRVLRLPDGYDTVLGANSGLSGGERQRLTIARAILGDTPVLILDEATAFADPESEYLVQQALNRLTRDRTVLVIAHRLHTITRADQIVVLDHGRIVERGTHEELLAAGGRYCRLWDTGQGSRVAVAAAQDGTR
notes: also called p23-IrtA
Q: Does B1 bind [2]?
A: binds

B2: rIrtB (recombinant purified IrtB, Rv1349) (natural protein)
chain: MIRTWIALVPNDHRARLIGFALLAFCSVVARAVGTVLLVPLMAALFGEAPQRAWLWLGWLSAATVAGWVLDAVTARIGIELGFAVLNHTQHDVADRLPVVRLDWFTAENTATARQAIAATGPELVGLVVNLVTPLTSAILLPAVIALALLPISWQLGVAALAGVPLLLGALWASAAFARRADTAADKANTALTERIIEFARTQQALRAARRVEPARSLVGNALASQHTATMRLLGMQIPGQLLFSIASQLALIVLAGTTAALTITGTLTVPEAIALIVVMVRYLEPFTAVSELAPALESTRATLGRIGSVLTAPVMVAGSGTWRDGAVVPRIEFDDVAFGYDGGSGPVLDGVSFCLQPGTTTAIVGPSGCGKSTILALIAGLHQPTRGRVLIDGTDVATLDARAQQAVCSVVFQHPYLFHGTIRDNVFAADPGASDDQFAQAVRLARVDELIARLPDGANTIVGEAGSALSGGERQRVSIARALLKAAPVLLVDEATSALDAENEAAVVDALAADPRSRTRVIVAHRLASIRHADRVLFVDDGRVVEDGSISELLTAGGRFSQFWRQQHEAAEWQILAE
notes: also called p28-IrtB
Q: Does B2 bind [2]?
A: binds

Reference: paper PMC2330087, “Mechanistic Insights into a Novel Exporter-Importer System of Mycobacterium tuberculosis Unravel Its Role in Trafficking of Iron” (PLoS ONE, 2008)
